Among the data in patent publication US20200362049A1 are Kd values, retold here.

The target in this test is Recombinant, Histidine-tagged extracellular domain of human CD38 (human) (UniProt P28907). As to the kind of experiment: BLI (Forte Bio), 1:1 fit.

For orientation: Kd means a measure of binding affinity in units of concentration. On to “IB4, reference monoclonal agonistic mouse anti-human CD38 antibody”, for which the Kd was found to be 9 nM.
